In this experiment the target is Tryptase, from human lung (human) (UniProt Q15661). Nature of the experiment: enzyme inhibition, pNA substrate.

Experimental findings from patent publication US20140213531A1 are described below.

Sequence of Tryptase, from human lung (human) (Q15661 31-275 limits assumed): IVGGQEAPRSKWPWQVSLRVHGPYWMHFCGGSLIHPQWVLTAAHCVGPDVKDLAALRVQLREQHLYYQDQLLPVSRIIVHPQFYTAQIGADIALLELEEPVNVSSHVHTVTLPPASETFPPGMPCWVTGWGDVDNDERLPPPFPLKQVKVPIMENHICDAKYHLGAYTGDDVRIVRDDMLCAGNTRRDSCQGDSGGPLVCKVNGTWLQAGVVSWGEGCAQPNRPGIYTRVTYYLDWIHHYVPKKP

B1: Example 93 (peptide)
peptide: XCTASIPPQCS
HELM: PEPTIDE1{[Nle].C.T.A.S.I.P.P.Q.C.S.[dP].P}$PEPTIDE1,PEPTIDE1,2:R3-10:R3|PEPTIDE1,PEPTIDE1,1:R1-13:R2$$$V2.0
SMILES: CCCC[C@@H]1NC(=O)[C@@H]2CCCN2C(=O)[C@H]2CCCN2C(=O)[C@H](CO)NC(=O)[C@@H]2CSSC[C@H](NC1=O)C(=O)N[C@@H]([C@@H](C)O)C(=O)N[C@@H](C)C(=O)N[C@@H](CO)C(=O)N[C@@H]([C@@H](C)CC)C(=O)N1CCC[C@H]1C(=O)N1CCC[C@H]1C(=O)N[C@@H](CCC(N)=O)C(=O)N2
For B1, the % inhibition – broadly, the change of the read-out against control, counted positive when it falls – at 100 µM amounted to 5.6%.
